# Reference: US20030236190A1 (published 2003)
# Non-standard residues stand in square brackets, D forms with d. No end group written: not given here. *: point of attachment. Biotin = O=C1N[C@H]2[C@H](CS[C@H]2CCCCC(=O)*)N1; Bpa = N[C@@H](Cc1ccc(C(=O)c2ccccc2)cc1)C(=O)O; Tic = O=C(O)[C@@H]1Cc2ccccc2CN1; Ac6c = NC1(C(=O)O)CCCCC1
# Molecular target: human insulin receptor (HIR) (human, UniProt P06213 28-1382, limits assumed)
# Assay: 125I-insulin competition, solubilised HIR
row,Binder,Kd [nM]
1,SLEEEWAWVECEVYGRGCPSGSLDESFYDWFERQL [S532],0.037
2,SLEEEWAQIESEVWGRXESFYDWFERQLG (X17 = βturn (unit not explained)) [S581],0.012
3,SLEEEWAQIEEVWGRGPSESFYDWFERQLG (label printed as 3569; also called 3569) [S569],0.15
4,SLEEEWAQIECEVYGRGCPSESFYDWFERQL [S557],0.02
5,SIEEEWAQIKCDVWGRGCPSESFYDWFERQL [S517],0.6
6,SLEEEWAQIQCEVWGRGCPSESFYDWFERQL [S606],0.004
7,SLEEEWAQVECEVYGRGCPSESFYDWFERQL [S530],0.008
8,SLEEEWAQIECEVWGRGCPSESFYDWFERQL [S558],0.019
9,SLEEEWAWVQCEVYGRGCPSESFYDWFERQL [S534],0.01
10,SLEEEWAQIEEVWGRPSESFYDWFERQLG [S570],0.73
11,SLEEEWAQIEEVWGRGSESFYDWFERQLG [S571],1.6
12,LDQEWAWVQCVYGRGCPSESFYDWFERQLG [S486],57
13,SLEEEWAQVECEVYGRGCPPGLLDESFYHWFDRQLR [S553],0.0073
14,SLEEEWAQIESEVWGRSESFYDWFERQLG [S573],0.036
15,SLEEEWAQIECEVYGRGCPSESFYDWFERQLG [S554],0.0064
16,SLEEEWAQVECEVYGRGCPSESFYDWF[dV]RQLG (cysteine pairing not given here) [S555],0.057
17,SLEEEWAQIEAEVWGRGAPSESFYDWFERQLG [S574],0.0092
18,SLEEEWAQIECEVWGRGCSESFYDWFERQL [S559],0.021
19,SLEEEWAQIQCEVWGR[dN][dC]SESFYDWFERQL (cysteine pairing not given here) [S563],0.014
20,SIEEEWAQIKCDVWGRGCSESFYDWFERQL [S556],0.032

row,Binder,Kd [nM]
1,SLEEEWAQIQCEVWGRCSESFYDWFERQL [S564],0.013
2,SLEEEWAQIEEVWGRSESFYDWFERQLG [S572],4.8
3,"H[Ac6c]CAQE[dW]GSEL[Tic]QCSGSESFYDWFERQL (not fully specified (bridges); printed as H-Acy-CAQEwGSEL-Tic-QCSGSESFYDWFERQL; cysteine pairing not given here, leading H- read as His; it may mean a free N-terminus) [S527]",2.4
4,WLDQEWAWVQCEVYGRGCPSDSDWAGYEWFEEQLD [S523],4.3
5,SLEEEWAQIECEVWGRGCPKGFYGWFRRRRG [S584],9.3
6,LDQEWAQVQCEVYGRGCPSESFYDWFERQL [S533],0.067
7,LDQEWAAVQCEVYGRGCPSESFYDWFERQL [S499],0.62
8,LAQEWAWVQCEVYGRGCPSESFYDWFERQL [S495],2.6
9,LDQEAAWVQCEVYGRGCPSESFYDWFERQL [S498],56
10,LEEEWAQVECEVYGRGCPSESFYDWFERQL [S536],0.083
11,LDQAWAWVQCEVYGRGCPSESFYDWFERQL [S497],2.5
12,LDQEWAWVQCEAYGRGCPSESFYDWFERQL [S503],2.1
13,LDQEWAWVQCAVYGRGCPSESFYDWFERQL [S502],3
14,LDQEWAWVQCEVAGRGCPSESFYDWFERQL [S504],13
15,WLDQEWAWVQCEVYGRGCPSGGSGGSSQAGSAFYAWFDQVLRTV [S512],28
16,SLEEEWAQVECEVYGRGCPSFYDWFERQL [S531],0.075
17,SLEEEWAQVECEVYGRGCPSGGSGGSGLLDESFYHWFDRQLR [S510],0.062
18,Ac-SIEEEWAQIKCDVWGRGPSESFYDWFERQLG [S568],0.0043
19,SIEEEWAQIKCDVWGRCSESFYDWFERQL [S562],0.018
20,Ac-SIEEEWAQIKCDVWGRGSESFYDWFERQL [S600],0.0076

row,Binder,Kd [nM]
1,SLEEEWAQVECEVYGRGCPS [S547],49
2,SLEEEWAQVECEVWGRGCPS [S548],4.1
3,WLDQEWAWVQCEVYGRGCPSGGSGGSGRVDWLQRNANFYDWFVAELG [S511],3.8
4,SIEEEWAQIKCDVWGRGCPPGLLDESFYHWFDRQLR [S520],0.02
5,HHHHHHKLDQEWAWVQCEVYGRGCPSESFYDWFERQLG [S481],13
6,RLEEEWAWVQCEVYGRGCPSGSLDESFYDWFERQLG [S518],0.16
7,SLELEWAQVECEVYGRGCPSGSLDESFYDWFERQLG [S539],0.098
8,SLEQEWAQVECEVYGRGCPSGSLDESFYDWFERQLG [S538],0.038
9,SLEEEWAQVECEVYGRGCPSGSLDESFYH[dW]FERQLG (cysteine pairing not given here) [S542],0.027
10,SLEEEWAQVEAEVYGRGAPSGSLDESFYDWFERQLG [S551],0.072
11,SLEEEWAQVECEVWGRGCPSGSLDESFYDWFERQLG [S541],0.0078
12,SLEHEWAQVECEVYGRGCPSGSLDESFYDWFERQLG [S537],0.044
13,SLEEEWAQVKCEVYGRGCPSGSLDESFYDWFERQLG [S540],0.013
14,SLEEEWAQVECEVYGRGCSGSLDESFYDWFERQLG [S549],0.013
15,HLCVLEELFWGASLFGYCSGGSLDESFYDWFERQL [S521],27
16,SLEEEWAQVECEV[Bpa]GRGCPSGSLDESFYDWFERQ[Bpa]GK(Biotin) (not fully specified (bridges); printed as SLEEEWAQVECEV-Bpa-GRGCPSGSLDESFYDWFERQ-Bpa-GK(Biotin); cysteine pairing not given here) [S546],26
17,SLEEEWAQIECEVWGRGCSGSLDESFYDWFERQL [S561],0.015
18,SLEEEWAQVECEVYGRGCXESFYDWFERQLG (not fully specified; X19 = βturn (unit not explained)) [S580],0.012
19,GSLDESFYDWFERQLGK (N-terminal acetyl; POX (not explained) between G16 and K17) [S550],40
20,SLEEEWAQIECEVWGRGCPKGFYGWFRRRG [S582],2.5
